B1: A22 4.H11 PCI (P4KP2RP1′H) (other)
chain: APSSRRDFTFDLYRALASAAPSQNIFFSPVSISMSLAMLSLGAGSSTKMQILEGLGLNLQKSSEKELHRGFQQLLQELNQPRDGFQLSLGNALFTDLVVDLQDTFVSAMKTLYLADTFPTNFRDSAGAMKQINDYVAKQTKGKIVDLLKNLDSNAVVIMVNYIFFKAKWETSFNHKGTQEQDFYVTSETVVRVPMMSREDQYHYLLDRNLSCRVVGVPYQGNATALFILPSEGKMQQVENGLSEKTLRKWLKMFKKRQLELYLPKFSIEGSYQLEKVLPSLGISNVFTSHADLSGISNHSNIQVSEMVHKAVVEVDESGTRAAAATGTIKTRRHARLNSQRLVFNRPFLMFIVDNNILFLGKVNRP
notes: As A22 WT PCI
B2: A22 D8 PCI (P4QP2RP1′N) (other)
chain: APSSRRDFTFDLYRALASAAPSQNIFFSPVSISMSLAMLSLGAGSSTKMQILEGLGLNLQKSSEKELHRGFQQLLQELNQPRDGFQLSLGNALFTDLVVDLQDTFVSAMKTLYLADTFPTNFRDSAGAMKQINDYVAKQTKGKIVDLLKNLDSNAVVIMVNYIFFKAKWETSFNHKGTQEQDFYVTSETVVRVPMMSREDQYHYLLDRNLSCRVVGVPYQGNATALFILPSEGKMQQVENGLSEKTLRKWLKMFKKRQLELYLPKFSIEGSYQLEKVLPSLGISNVFTSHADLSGISNHSNIQVSEMVHKAVVEVDESGTRAAAATGTIQTRRNARLNSQRLVFNRPFLMFIVDNNILFLGKVNRP
notes: As A22 WT PCI
B3: A22 5.E12 PCI (P4HP2RP1′V) (other)
chain: APSSRRDFTFDLYRALASAAPSQNIFFSPVSISMSLAMLSLGAGSSTKMQILEGLGLNLQKSSEKELHRGFQQLLQELNQPRDGFQLSLGNALFTDLVVDLQDTFVSAMKTLYLADTFPTNFRDSAGAMKQINDYVAKQTKGKIVDLLKNLDSNAVVIMVNYIFFKAKWETSFNHKGTQEQDFYVTSETVVRVPMMSREDQYHYLLDRNLSCRVVGVPYQGNATALFILPSEGKMQQVENGLSEKTLRKWLKMFKKRQLELYLPKFSIEGSYQLEKVLPSLGISNVFTSHADLSGISNHSNIQVSEMVHKAVVEVDESGTRAAAATGTIHTRRVARLNSQRLVFNRPFLMFIVDNNILFLGKVNRP
notes: As A22 WT PCI
B4: FL α1AT Pitts C232S P2K (other)
chain: SDPQGDAAQKTDTSHHDQDHPTFNKITPNLAEFAFSLYRQLAHQSNSTNIFFSPVSIATAFAMLSLGTKADTHDEILEGLNFNLTEIPEAQIHEGFQELLRTLNQPDSQLQLTTGNGLFLSEGLKLVDKFLEDVKKLYHSEAFTVNFGDTEEAKKQINDYVEKGTQGKIVDLVKELDRDTVFALVNYIFFKGKWERPFEVKDTEEEDFHVDQVTTVKVPMMKRLGMFNIQHSKKLSSWVLLMKYLGNATAIFFLPDEGKLQHLENELTHDIITKFLENEDRRSASLHLPKLSITGTYDLKSVLGQLGITKVFSNGADLSGVTEEAPLKLSKAVHKAVLTIDEKGTEAAGAMFLEAIKRSIPPEVKFNKPFVFLMIEQNTKSPLFMGKVVNPTQK
notes: E. coli, SUMO tag removed; also called P2K α1AT Pitts; P2.G11
B5: α1AT Pitts (P1R) mutant P2WP1′I (other)
chain: SDPQGDAAQKTDTSHHDQDHPTFNKITPNLAEFAFSLYRQLAHQSNSTNIFFSPVSIATAFAMLSLGTKADTHDEILEGLNFNLTEIPEAQIHEGFQELLRTLNQPDSQLQLTTGNGLFLSEGLKLVDKFLEDVKKLYHSEAFTVNFGDTEEAKKQINDYVEKGTQGKIVDLVKELDRDTVFALVNYIFFKGKWERPFEVKDTEEEDFHVDQVTTVKVPMMKRLGMFNIQHSKKLSSWVLLMKYLGNATAIFFLPDEGKLQHLENELTHDIITKFLENEDRRSASLHLPKLSITGTYDLKSVLGQLGITKVFSNGADLSGVTEEAPLKLSKAVHKAVLTIDEKGTEAAGAMFLEAIWRIIPPEVKFNKPFVFLMIEQNTKSPLFMGKVVNPTQK
B6: α1AT Pitts (P1R) mutant P2RP1′A (other)
chain: SDPQGDAAQKTDTSHHDQDHPTFNKITPNLAEFAFSLYRQLAHQSNSTNIFFSPVSIATAFAMLSLGTKADTHDEILEGLNFNLTEIPEAQIHEGFQELLRTLNQPDSQLQLTTGNGLFLSEGLKLVDKFLEDVKKLYHSEAFTVNFGDTEEAKKQINDYVEKGTQGKIVDLVKELDRDTVFALVNYIFFKGKWERPFEVKDTEEEDFHVDQVTTVKVPMMKRLGMFNIQHSKKLSSWVLLMKYLGNATAIFFLPDEGKLQHLENELTHDIITKFLENEDRRSASLHLPKLSITGTYDLKSVLGQLGITKVFSNGADLSGVTEEAPLKLSKAVHKAVLTIDEKGTEAAGAMFLEAIRRAIPPEVKFNKPFVFLMIEQNTKSPLFMGKVVNPTQK
notes: also called 3.E5
B7: α1AT Pitts (P1R) mutant P2WP1′H (other)
chain: SDPQGDAAQKTDTSHHDQDHPTFNKITPNLAEFAFSLYRQLAHQSNSTNIFFSPVSIATAFAMLSLGTKADTHDEILEGLNFNLTEIPEAQIHEGFQELLRTLNQPDSQLQLTTGNGLFLSEGLKLVDKFLEDVKKLYHSEAFTVNFGDTEEAKKQINDYVEKGTQGKIVDLVKELDRDTVFALVNYIFFKGKWERPFEVKDTEEEDFHVDQVTTVKVPMMKRLGMFNIQHSKKLSSWVLLMKYLGNATAIFFLPDEGKLQHLENELTHDIITKFLENEDRRSASLHLPKLSITGTYDLKSVLGQLGITKVFSNGADLSGVTEEAPLKLSKAVHKAVLTIDEKGTEAAGAMFLEAIWRHIPPEVKFNKPFVFLMIEQNTKSPLFMGKVVNPTQK
B8: FL α1AT Pitts C232S P1′K (other)
chain: SDPQGDAAQKTDTSHHDQDHPTFNKITPNLAEFAFSLYRQLAHQSNSTNIFFSPVSIATAFAMLSLGTKADTHDEILEGLNFNLTEIPEAQIHEGFQELLRTLNQPDSQLQLTTGNGLFLSEGLKLVDKFLEDVKKLYHSEAFTVNFGDTEEAKKQINDYVEKGTQGKIVDLVKELDRDTVFALVNYIFFKGKWERPFEVKDTEEEDFHVDQVTTVKVPMMKRLGMFNIQHSKKLSSWVLLMKYLGNATAIFFLPDEGKLQHLENELTHDIITKFLENEDRRSASLHLPKLSITGTYDLKSVLGQLGITKVFSNGADLSGVTEEAPLKLSKAVHKAVLTIDEKGTEAAGAMFLEAIPRKIPPEVKFNKPFVFLMIEQNTKSPLFMGKVVNPTQK
notes: E. coli, SUMO tag removed; also called P1′K α1AT Pitts; P1′.F9

How the values were obtained:
[1] = target: T1, activated Protein C (APC) (human, UniProt P04070 43-197; P04070 212-461); experiment: preliminary pseudo-first-order inhibition kinetics, residual chromogenic activity
T1 construct: also called human plasma APC
Protocol: (§1) Preliminary second-order rate constants for the inhibition of thrombin and APC by random mutagenesis PCI variants were measured under pseudo first-order conditions using an excess of serpin over protease. Serpin and protease were incubated together for varying lengths of time and the residual activity determined by adding an excess of chromogenic substrate for the protease. Plots of residual protease activity over time gave the observed rate constant kobs. The second-order rate constant, k₂, is the slope of the plot of kobs versus serpin concentration (fitted using a linear regression model). WT and P2KP1′K are shown for comparison. The error shown is the standard error of the slope.

[2] = target: T2, thrombin (UniProt P00734 328-622); experiment: as above
Protocol: as §1

[3] = target: T1, activated Protein C (APC); experiment: ratio of rate constants, APC over thrombin
Protocol: Standard errors are shown.
as §1

[4] = target: T1, activated Protein C (APC); experiment: ratio of rate constants, APC over fXa
Protocol: (§2) The inhibition of APC was reduced but still considerable, especially for the variants of α₁AT and the PCI variants in the presence of heparin. However, the specificity of PCI and α₁AT Pitts is not limited to thrombin and APC. […] In order not to inhibit coagulation, our variants also need to be specific for APC over fXa. We therefore also determined the rate constants of inhibition of PCI and α₁AT and their variants for fXa (Table 3). Rate constants were measured under pseudo-first-order conditions using an excess of serpin over protease. Serpin and protease were incubated together for varying lengths of time and the residual activity determined by adding an excess of chromogenic substrate (S2222) for the protease. Plots of residual protease activity over time gave the observed rate constant kobs. The second-order rate constant, k₂, is the slope of the plot of kobs versus serpin concentration (fitted using a linear regression model). Standard errors of the slope are shown (Table 3).

[5] = target: T3, fXa (UniProt P00742 41-179; P00742 235-488); experiment: pseudo-first-order inhibition kinetics, residual chromogenic activity (S2222)
T3 construct: also called factor Xa
Protocol: as §2

[6] = target: T1, activated Protein C (APC); experiment: ratio of rate constants, APC over thrombin; remark: listed apart in the source
Protocol: (§3) Rate constants of thrombin and APC inhibition were measured under pseudo-first-order conditions using an excess of serpin over protease (Table 1). Serpin and protease were incubated together for varying lengths of time and the residual activity was determined by adding an excess of chromogenic substrate for the protease (S2238 for thrombin and […] for APC). Residual protease activity was then measured by following the absorbance at 405 nm. Plots of residual protease activity over time gave the observed rate constant kobs. The second-order rate constant, ₖ₂, is the slope of the plot of kobs versus serpin concentration (fitted using a linear regression model). Standard errors of the slope are shown.

[7] = target: T1, activated Protein C (APC); experiment: pseudo-first-order inhibition kinetics, residual chromogenic activity
Protocol: as §3

[8] = target: T2, thrombin; experiment: as above
Protocol: as §3

[9] = target: T3, fXa; experiment: single-concentration estimate (FIG. 15)
Protocol: 1 μM serpin was incubated with 12.5 nM protease for different amounts of time. At the indicated timepoints, the reaction was stopped by addition of an excess of chromogenic substrate (S2238 for thrombin, S2222 for fXa). The residual enzyme activity was divided by the initial enzyme activity and the natural log of this value plotted against time. The slope of these plots is the observed rate constant, kobs. To obtain an estimate of the second-order rate constant k₂, kobs was divided by the serpin concentration. […] The mutants shown all have the Pitts (M358R, P1R) mutation.
Four additional mutants were identified from this additional screen. These all had the P1R mutation and in addition had either P2RP1′A, P2RP1′Q, P2WP1′I or P2WP1′H. To verify the specificity of these mutants, an initial experiment was performed, using only one concentration of serpin and testing its inhibition of thrombin and fXa. APC inhibition was not considered at this stage, because mutants were selected based on their low inhibition of thrombin and fXa. Serpin and protease were incubated for different times and at the indicated timepoints, the reaction was stopped by addition of an excess of chromogenic substrate. Residual protease activity was divided by the initial protease activity and the natural log of this value plotted against time (FIG. 15). The slope of this line divided by the serpin concentration gives an estimate of the second-order rate constant of inhibition.

T1 sequence (P04070 43-197, chain 1 of 2): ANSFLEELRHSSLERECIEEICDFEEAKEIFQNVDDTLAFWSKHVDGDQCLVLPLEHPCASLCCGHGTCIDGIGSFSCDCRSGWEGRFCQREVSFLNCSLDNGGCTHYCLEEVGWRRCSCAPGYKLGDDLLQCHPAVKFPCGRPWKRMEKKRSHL
T1 sequence (P04070 212-461, chain 2 of 2): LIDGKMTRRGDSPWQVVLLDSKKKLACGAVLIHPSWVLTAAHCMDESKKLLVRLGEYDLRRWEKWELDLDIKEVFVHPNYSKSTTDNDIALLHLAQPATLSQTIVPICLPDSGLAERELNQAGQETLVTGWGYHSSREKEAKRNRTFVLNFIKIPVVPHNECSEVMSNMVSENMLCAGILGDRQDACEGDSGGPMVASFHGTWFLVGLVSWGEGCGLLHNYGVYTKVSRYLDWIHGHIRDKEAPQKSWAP
T3 sequence (P00742 41-179 limits assumed, form in doubt, chain 1 of 2): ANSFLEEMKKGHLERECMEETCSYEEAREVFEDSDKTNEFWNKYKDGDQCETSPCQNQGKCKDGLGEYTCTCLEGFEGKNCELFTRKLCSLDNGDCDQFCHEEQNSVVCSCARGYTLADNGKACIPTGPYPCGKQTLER
T3 sequence (P00742 235-488 limits assumed, form in doubt, chain 2 of 2): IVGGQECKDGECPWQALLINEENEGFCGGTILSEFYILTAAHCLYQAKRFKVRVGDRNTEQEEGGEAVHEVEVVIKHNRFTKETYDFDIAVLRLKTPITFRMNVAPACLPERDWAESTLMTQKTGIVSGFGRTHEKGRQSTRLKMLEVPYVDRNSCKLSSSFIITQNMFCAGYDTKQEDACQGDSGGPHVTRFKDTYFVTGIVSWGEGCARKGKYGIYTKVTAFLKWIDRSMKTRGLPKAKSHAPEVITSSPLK

Binder	second-order rate constant of inhibition [1] [M⁻¹ s⁻¹]	second-order rate constant of inhibition [2] [M⁻¹ s⁻¹]	inhibition of APC/thrombin [3] [fold]	fold reduction of the second-order rate constant compared to FL α1AT Pitts C232S [9] [fold]	other results
B1	450	21	21.4		
B2	1000	84	11.9		
B3	260	23	11.3		
B4					fold inhibition APC/fXa [4]: 16.5 fold; second-order rate constant of inhibition [5]: 3930 M⁻¹ s⁻¹; fold inhibition APC/thrombin [6]: 1270 fold; second-order rate constant of inhibition [7]: 64800 M⁻¹ s⁻¹; second-order rate constant of inhibition [8]: 51 M⁻¹ s⁻¹
B5				~10	
B6				~10	
B7				~10	
B8					fold inhibition APC/fXa [4]: 19.6 fold; second-order rate constant of inhibition [5]: 4890 M⁻¹ s⁻¹; fold inhibition APC/thrombin [6]: 563 fold; second-order rate constant of inhibition [7]: 95700 M⁻¹ s⁻¹; second-order rate constant of inhibition [8]: 170 M⁻¹ s⁻¹
